Measurements: PMC3173194

Molecular target: GalNAc-glycosylated recombinant MUC2 fragment (UniProt Q02817)
Assay: peptide or protein array

percent of the total binding (of GalNAc-T2 to GalNAc-MUC2, with Mn2+ and UDP): 20%
Substance: GalNAc-T2 with a mutation in the α-lectin subdomain (GalNAc-T2^458H) (from UniProt Q10471 52-571) (enzyme)
